From US20220089752A1 (University of California, published 2022) come the findings set out here.

The target of test [1] is T1, ephrin type-A receptor 2 (EphA2) on cells (human, UniProt P29317 24-976).
T1 construct: whole, on cells
Description: flow cytometry on DU145 cells (apparent KD). How it is done:
(§1) In these experiments, apparent binding affinity of RYR IgG1 versus RYRgerm_102919_15 IgG1 on DU145 cells was evaluated. In these experiments, DU145 cells were incubated for 1 h at 25° C. with RYR or RYRgerm_102919_15 at a range of concentrations between 40 pM to 125 nM, washed, and binding detected with anti-human Alexa Fluor 647. MFI values were curve-fit to generate the apparent KD values.
(A flow cytometer gives signals particle by particle.)

Test [2] addresses T1, ephrin type-A receptor 2 (EphA2) on …. Put plainly: flow cytometry on DU145 cells, 1 h at 25 C, 40 pM to 125 nM, MFI curve fit (apparent KD). How it is done: as §1
Test [3] deals with T2, recombinant human EphA2 (human, UniProt P29317 25-534).
T2 construct: also called human recombinant EphA2 protein
Description: BLI (Probe Life Gator), IgG1 on anti-human Fc probes, 100 nM recombinant human EphA2, 25 C.

T2 sequence (P29317 25-534 limits assumed): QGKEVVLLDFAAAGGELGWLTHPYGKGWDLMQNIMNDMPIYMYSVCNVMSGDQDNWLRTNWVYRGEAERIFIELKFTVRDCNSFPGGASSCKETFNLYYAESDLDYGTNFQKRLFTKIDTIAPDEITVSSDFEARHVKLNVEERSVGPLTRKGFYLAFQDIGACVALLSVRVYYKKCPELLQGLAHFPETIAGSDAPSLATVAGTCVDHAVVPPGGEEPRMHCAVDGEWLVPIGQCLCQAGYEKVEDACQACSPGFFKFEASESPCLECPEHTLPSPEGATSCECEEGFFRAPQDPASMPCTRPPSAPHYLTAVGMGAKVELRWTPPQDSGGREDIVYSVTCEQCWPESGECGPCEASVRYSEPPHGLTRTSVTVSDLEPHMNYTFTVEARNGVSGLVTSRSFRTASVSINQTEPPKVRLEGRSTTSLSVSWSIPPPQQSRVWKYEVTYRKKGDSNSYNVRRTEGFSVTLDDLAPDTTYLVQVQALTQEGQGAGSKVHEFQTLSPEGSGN
T1 sequence (P29317 24-976): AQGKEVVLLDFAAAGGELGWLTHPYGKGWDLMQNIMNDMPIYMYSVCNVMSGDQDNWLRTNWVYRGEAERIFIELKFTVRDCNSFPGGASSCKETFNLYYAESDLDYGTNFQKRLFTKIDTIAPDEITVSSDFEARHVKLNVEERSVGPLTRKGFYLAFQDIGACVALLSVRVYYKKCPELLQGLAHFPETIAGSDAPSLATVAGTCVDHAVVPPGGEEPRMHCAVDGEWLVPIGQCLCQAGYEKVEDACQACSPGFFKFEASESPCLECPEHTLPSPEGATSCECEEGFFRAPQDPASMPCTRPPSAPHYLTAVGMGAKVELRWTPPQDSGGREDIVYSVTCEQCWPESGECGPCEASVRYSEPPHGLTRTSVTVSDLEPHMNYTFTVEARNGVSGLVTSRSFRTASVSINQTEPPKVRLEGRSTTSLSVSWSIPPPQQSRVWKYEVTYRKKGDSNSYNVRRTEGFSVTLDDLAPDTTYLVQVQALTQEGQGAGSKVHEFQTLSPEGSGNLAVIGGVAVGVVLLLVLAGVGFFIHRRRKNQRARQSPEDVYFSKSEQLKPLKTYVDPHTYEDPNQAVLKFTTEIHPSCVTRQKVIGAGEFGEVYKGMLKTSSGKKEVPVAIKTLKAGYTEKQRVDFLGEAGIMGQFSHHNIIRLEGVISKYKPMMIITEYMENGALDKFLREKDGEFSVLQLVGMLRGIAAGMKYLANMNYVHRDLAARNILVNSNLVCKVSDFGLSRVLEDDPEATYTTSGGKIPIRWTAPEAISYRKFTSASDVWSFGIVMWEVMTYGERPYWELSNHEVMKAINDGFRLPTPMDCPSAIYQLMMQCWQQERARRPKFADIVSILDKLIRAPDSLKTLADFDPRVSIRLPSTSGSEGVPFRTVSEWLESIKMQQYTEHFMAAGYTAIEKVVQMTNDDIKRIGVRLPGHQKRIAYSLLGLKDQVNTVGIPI

B1: RYRgerm_102919_15 IgG1 (antibody, V domains shown)
VH: EVQLVESGGGLVQPGGSLRLSCAASGFTFSSYSMNWVRQAPGKGLEWVSYISSSSSTIYYADSVKGRFTISRDNAKNSLYLQMNSLRAEDTAVYYCARYRLPNFWSGYPNYGTDVWGQGTTVTVSS
VL: QSVLTQPPSVSGAPGQRVTISCTGSSSNIGAGYDVHWYQQLPGTAPKLLIYGNSNRPSGVPDRFSGSKSGTSASLAITGLQAEDEADYYCQSYDSSLSGHVVFGGGTKLTVL
notes: Recombinant human IgG1 built from the scFv RYRgerm_102919_15
In the case of B1, in test [1], the “fold increase in binding affinity against RYR IgG1” value was approximately 100 fold. In test [2], the Kd worked out at 0.23 nM. In test [3], the Kd was approximately 5 nM, the “fold increase in binding affinity against RYR IgG1” value is approximately 5 fold, the koff (commonly the rate constant with which the complex falls apart) is 0.00132 s⁻¹ and the kon (usually the second-order rate constant of association) amounted to 262000 M⁻¹ s⁻¹.
